Results taken from the nanobody polyreactivity screen of Harvey et al. (2022).

experiment: yeast display, Sf9 membrane polyspecificity reagent, FACS + sequencing; frameworks hold sequencing errors
Procedure, shortened: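 Genes from sorted yeast were amplified by colony PCR, read by MiSeq 2 × 250 sequencing and filtered on CDR length. These cells carried a synthetic nanobody library in Saccharomyces cerevisiae BJ5465 and were sorted by FACS into low and high (top ~1%) gates on anti-HA and streptavidin fluorescence. Polyreactivity is labelled according to the gate of origin.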

Sequence	polyreactivity (PSR sort gate)
QVQLVESGGGLVQAGGSLRLSCAASGSTFTQYVMGWYRQAPGKERELVAAISDSGSTYYADSVKGRFTISRDNAKNTVYLQMNSLKPEDTAVYYCATDVLAWAPYDYWGQGTQVTVSS	low polyreactivity
QVQLVESGGGLVQAGGSLRLSCAASGSTFTRNTMGWYKQAPGKEREMVAAISRRGGRTDYADSVKGRFTISRDNAKNSVYLQMNSLKPEDTAVYYCAADPITVDQNPRYGYWGQGTQVTVSS	high polyreactivity
QVQLVESGGGLVQAGGSLRLSCAASGSTFTRYAMGWYRQAPGKERELVASISRSGGRTYYADSVKGRFTISRDNAKNTVYLQMNSLKPEDTAVYYCAKLYLVTKSLLEITGGKYDGDYWGQGTQVTVSS	high polyreactivity
QVQLVESGGGLVQAGGSLRLSCAASGSTFTRYDMGSYRQAPGKERELVAAISKSGGSTYYADSVKGRFRISRDNAKNTVYLQMNSLKPEDTAVYYCNQLVEEDYWGQGTQVTVSS	low polyreactivity
QVQLVESGGGLVQAGGSLRLSCAASGSTFTRYDMGWYRQAPGKERELVAAISKSGGSTYYADSVKGRFTISRDNAKNTVYLQMNSLKPEDTAVYYCARGSTKYHIYSLDYWGQGTQVTVSS	low polyreactivity
QVQLVESGGGLVQAGGSLRLSCAASGSTFTSSAMGWYRQAPGKERELVAAISKSGGSTYYADSVKGRFTLSRDNAKNTVYLQMNSLKPEDTAVYYCAARYNVRSYSTSRFDYWGQGTQVTVSS	low polyreactivity
QVQLVESGGGLVQAGGSLRLSCAASGSTFTSYAMGWYRQAPGKERELVAAINYSGGSTYYADSVKGRFTISRDNAKNTVYLQMNSLKPEDTAVYYCAADGYIRQYVTYYYWGQGTQVTVSS	low polyreactivity
QVQLVESGGGLVQAGGSLRLSCAASGSTFTSYAMGWYRQAPGKERELVAGITSRGTSTYYADSVKGRFTISRDNAKNTVYLQMNSLKPEDTAVYYCARDPYQPKVSGRLFLRYDYWGQGTQVTVSS	high polyreactivity
QVQLVESGGGLVQAGGSLRLSCAASGSTFTSYAMGWYRQAPGKERELVATISKISGSTYYADSVKGRFTISRDNAKNTVYLQMNSLKPEDTAVYYCAAKQGWVQSSILWYRAYGYWGQGTQVTVSS	high polyreactivity
QVQLVESGGGLVQAGGSLRLSCAASGSTFTTNAMGWYIQAPGKERELVASITWSGGGTNYADSVKGRFTISRDNAKNTVYLQMNSLKPEDTAVYYCAADYDDSHLRSDYWGQGTQVTVSS	low polyreactivity
QVQLVESGGGLVQAGGSLRLSCAASGSTFTTYAMGWYRQAPGKERELVAVITDSRGTYYADSVKGRFTISRDNAKNTVYLQMHSLKPEDTALYYCNRVFPPTDYEFDSWGQGTQVTVSS	low polyreactivity
QVQLVESGGGLVQAGGSLRLSCAASGSTFTVNAMGWYRQAPGKERELVAAINGSGDITYYADSVTGRFTISRDNAKNTVYLQMNSLKPEDTAVYYCAADQGVPSTYDYWGQGTQVTVSS	low polyreactivity
QVQLVESGGGLVQAGGSLRLSCAASGSTFTVNDMGWYRQAPGKERELVAAITQRDGRTFYADSVKGRFTISRDNAQNTVYLLMNSLKPEDTAVYYCAADYGWYTYGDYDYWGQGTQVTVSS	low polyreactivity
QVQLVESGGGLVQAGGSLRLSCAASGSTFTVYAMGWYRQAPGKERELVAAIRDGSSTNYADSVKGRFTISRDNAKNTVYLQMNSLKPEDTAVYYCNAPYPPTGYGDDDYWGQGTQVTVSS	low polyreactivity
QVQLVESGGGLVQAGGSLRLSCAASGSTFTVYAMGWYRQAPGKERELVAAISWGGGSTNYADSVKGRFTISRDNAKNTVYLQMNSLKPEDTAVYYCNADIDDIIGSWGDYWGQGTQVTVSS	low polyreactivity
QVQLVESGGGLVQAGGSLRLSCAASGSTFTWNVMGWYREAPGKERELVAAIDGSGGDTYYADSVKGRFTISRDHAKNTVYLQMNSLNPEDTAVYYCAAEDAAAYSENDYWGQGTQVTVSS	low polyreactivity
QVQLVESGGGLVQAGGSLRLSCAASGSTFTWYAMGWNRQAPGKERELVADITWRDGSTYYADSVKGRFTISRDNAKNTVYLQMNSLKPEDTAVYYCNARRDYDMDWGQGTQVTVSS	high polyreactivity
QVQLVESGGGLVQAGGSLRLSCAASGSTFTWYAMGWYRQAPGKERELVAAISWSGDSTYYADSVKGRFTISRDNAKNTVYLQMNSLKPEDTAVYYCAAENVYGYDYWGQGTQVTVSS	high polyreactivity
QVQLVESGGGLVQAGGSLRLSCAASGSTFTWYAMGWYRQAPGKERELVARINFSGGSTYADSVKGRFTISRDNAKNTVYLQMNSLKPEDTAVYYCAAVYPGRKARRKYDYWGQGTQVTVSS	low polyreactivity
QVQLVESGGGLVQAGGSLRLSCAASGSTFTWYAMGWYRQAPWKERELVADISYGGGSTYYADSVKGRFTISRDNAKNTVYLQMNSLKPEDTEVYYCAAASYLYLYLLEDYWGQGTQVTVSS	low polyreactivity
QVQLVESGGGLVQAGGSLRLSCAASGSTFTWYGMGWYRQAPGKETELVAAISGSGGRTYYADSVKGRFTISRDNAKNTVYFQMNSLKPEDTAVYYCNADPANPFGTEFEYWGQGTQVTVSS	high polyreactivity
QVQLVESGGGLVQAGGSLRLSCAASGSTFTYNAMGWYRQAPGKERELVASISSGTTTYYADSVKGRFTISRDNAKNTVYLQMNSLKPEDTAVYYCNADYFDYSRPRYDYWGQGTQVTVSS	low polyreactivity

Sequence	polyreactivity (PSR sort gate)
QVQLVESGGGLVQAGGSLRLSCAASGSTFTYNTMGWYRQAPGQERELVAAISSGGSTYYADSVKGRFTFSRDNAKNTVSLQMNSLKPEDTAVYYCAARSRYGESPGYYWGQGTQVTVSS	high polyreactivity
QVQLVESGGGLVQAGGSLRLSCAASGSTFTYYAMGWYRQAPGKERELFAAITFRGDSTYYADSVKGRFTISRDNAKNTVYLQMNILKPEDTAVYYCNADSISSTYYDEDYWGQGTQVTVSS	low polyreactivity
QVQLVESGGGLVQAGGSLRLSCAASGSTFTYYAMGWYRQAPGKERELVAAISNSGTSTYYADSVKGRFTISRDNAKNTVYLQMNSLKPEDTAVYYCNAYSDLFGSYTDLGEYDYWGQGTQVTVSS	low polyreactivity
QVQLVESGGGLVQAGGSLRLSCAASGSTFTYYAMGWYRQAPGKERELVAAISRRGGSTYYADSVKGRFTISRDNAKNTVYLQMNSLKPEDTAVYYCNARLKPLWGGRYDYWGQGTQVTVSS	high polyreactivity
QVQLVESGGGLVQAGGSLRLSCAASGSTFTYYAMGWYRQAPGKERELVAAISRRGGSTYYADSVKGRFTISRDNAKNTVYLQMNSLKPEDTAVYYCNVVIYSYGINGRYDYWGQGTQVTVSS	high polyreactivity
QVQLVESGGGLVQAGGSLRLSCAASGSTFTYYAMGWYRQAPGKERELVAAITSRGGITYYADSVKGRFTISRDNAKNTVYLQMNSLKPEDTAVYYCNAYSQRYGYYYWGQGTQVTVSS	high polyreactivity
QVQLVESGGGLVQAGGSLRLSCAASGSTFTYYAMGWYRQAPGKERELVAAITWSGVSTYYADSVKGRFTISRDNAKNTVYLQMNSLKPEDTAVYYCANGYSYGWWGGFGYWGQGTQVTVSS	high polyreactivity
QVQLVESGGGLVQAGGSLRLSCAASGSTFTYYAMGWYRQSPGKERELVAAISWRGGSTYYADSVKGRFTISRDNAKNTVYLQMNSLKPEDNAVYYCAASRTFYRAVTQTGSPMDYWGQGTQVTVSS	high polyreactivity
QVQLVESGGGLVQAGGSLRLSCAASGSTFVANAMGWYRQAPGKERELVAAIDYDDGGTYYADSVKGRFTISRDNAKNTVYLQMNSLKPEDTAVYYCAADYGDIGAVLHYPVELGYWGQGTQVTVSS	low polyreactivity
QVQLVESGGGLVQAGGSLRLSCAASGSTFVANTMGWYRQAPGKERELVATIRRSGGSTYYADSVKGRFTISRDNAKNTVYLQMNSLKPEDTAVYYCAKDSRWPSYRGMDYWGQGTQVTVSS	low polyreactivity
QVQLVESGGGLVQAGGSLRLSCAASGSTFVAYAMGSYRQAPGKERELVAAISASGVRTYYADSVKGRFTISRDNAKNTVYLQMNSLKPEDTAVYYCAATVFRKYRYGYWGQGTQVTVSS	high polyreactivity
QVQLVESGGGLVQAGGSLRLSCAASGSTFVDNAMGWYRQAPGKEREFVAAIDWSGGSTFYADSVKGRFTISRDNAKNTVYLQMNSLKPEDTAVYYCNADSYPQGDYWGQGSQVTVSS	low polyreactivity
QVQLVESGGGLVQAGGSLRLSCAASGSTFVDNAMGWYRQAPGKERELVAAIRDGSGGSTRYADSVKGRFTISRDNAKNTVYLQMNSLKPEDTAVYYCAADGYITVNYLRYDYWGQGTQVTVSS	low polyreactivity
QVQLVESGGGLVQAGGSLRLSCAASGSTFVDNAMGWYRQAPGKERELVAAISTRGGTTYYADSVKGRFTISRDNAKNTVYLQMKSLKAEDTAVYYCAAEIFTSVWWRWVDGDYWGQGTQVTVSS	high polyreactivity
QVQLVESGGGLVQAGGSLRLSCAASGSTFVDNAMGWYRQAPGKERELVADISSGGSTYYADSVKGRFTISRDNAKNTVYLQMNSLKPEDTAVYYCNAESFYWWHSYDYWGQGTQVTVSS	high polyreactivity
QVQLVESGGGLVQAGGSLRLSCAASGSTFVDNAMGWYRQAPGKERELVASITYRGGSTYYADSVKGRFTISRDNAKNTVYLQMNSLKPEDTAVYYCAKGHYFKYDYWGQGTQVTVSS	low polyreactivity
QVQLVESGGGLVQAGGSLRLSCAASGSTFVDNDMGWYRQAPGKERELVAAIDQSGGSTSYADSVKGRFTISRDNAKNTVYLQMNSLKPEDTAVYYCATPSYTTAYVEGDYWGQGTQVTVSS	low polyreactivity
QVQLVESGGGLVQAGGSLRLSCAASGSTFVENAMGWYRQAPGKERELVAAISSSGDSTFYADSVKGRFTISRDNAKNTVYLKMNSLKPEDTAVYYCAADRRINYDGLDMDYWGQGTQVTVSS	low polyreactivity
QVQLVESGGGLVQAGGSLRLSCAASGSTFVFNAMGWYRPAPGKERELVAAISSTGSTYYADSVKGRFTISRDNAKNTVYLQMNSLKPEDTAVYYCAAPYGFSYKGATYDSWGQGTQVTVSS	high polyreactivity
QVQLVESGGGLVQAGGSLRLSCAASGSTFVGNAMGWYRQAPGKERELVATIRYSDGSTYYADSVKGRFTISRDNAKNTVYLQMNSLKPEDTAVYYCATRVKQKGPYRYSARYFYTYNYWGQGTQVTVSS	high polyreactivity
QVQLVESGGGLVQAGGSLRLSCAASGSTFVGYAMGWYRQAPGKERELVAAITSRGGRTYYADSVKGRFTISRDNAKNTVYLQMNSLKPEDTAVYYCNAKRPRIGVTRYDYWGQGTQVTVSS	high polyreactivity
